Assay results as given in patent US20240116985A1 (published 2024).
Starred links: 1 amine or outer side, 2 acyl side, 3 side chain; linkers in the order of their positions; H or OH if unused. Positions of bridges follow the written chain, without caps; N, C: chain ends. Non-standard residues stand in square brackets, D forms with d. Primed or numbered codes have the meaning given here. PyrS2″ = (S)-3-amino-1-((pent-4-en-1-yloxy)carbonyl)pyrrolidine-3-carboxylic acid (stapling residue), C=CCCCOC(=O)N1CC[C@@](N[*:1])(C(=O)[*:2])C1; B5(4) = 2,2-bis(4-pentenyl)glycine = 2-amino-2-(pent-4-en-1-yl)hept-6-enoic acid (stitching residue), C=CCCCC(CCCC=C)(N[*:1])C(=O)[*:2]; B5(5) = 2,2-bis(4-pentenyl)glycine, 2-amino-2-(pent-4-en-1-yl)hept-6-enoic acid (stitching residue), C=CCCCC(CCCC=C)(N[*:1])C(=O)[*:2]; B5(21) = 2-amino-2-(pent-4-en-1-yl)hept-6-enoic acid, bis(4-pentenyl)glycine (stitching residue), C=CCCCC(CCCC=C)(N[*:1])C(=O)[*:2]; (NMe2)GlnR(3) = [NMe2]GlnR, N5,N5-dimethyl-L-glutamine, CN(C)C(=O)CC[C@H](N[*:1])C(=O)[*:2]; (NHCyBu)AsnR = N4-cyclobutyl-L-asparagine, O=C(C[C@H](N[*:1])C(=O)[*:2])NC1CCC1; (NHCyPr)AsnR = N4-cyclopropyl-L-asparagine, O=C(C[C@H](N[*:1])C(=O)[*:2])NC1CC1; (NHiPr)AsnR = N4-isopropyl-L-asparagine, CC(C)NC(=O)C[C@H](N[*:1])C(=O)[*:2]; (NHnPr)AsnR = N4-propyl-L-asparagine, CCCNC(=O)C[C@H](N[*:1])C(=O)[*:2]; (NHEt)AsnR = N4-ethyl-L-asparagine, CCNC(=O)C[C@H](N[*:1])C(=O)[*:2]; (NHMe)AsnR = N4-methyl-L-asparagine, CNC(=O)C[C@H](N[*:1])C(=O)[*:2]; TOMe = O-methyl-L-threonine, CO[C@H](C)[C@H](N[*:1])C(=O)[*:2]; Phe(3-COOH) = N[C@@H](Cc1cccc(C(=O)O)c1)C(=O)O; 2F3MeF = Cc1cccc(C[C@H](N[*:1])C(=O)[*:2])c1F; Phe(2-CF3) = N[C@@H](Cc1ccccc1C(F)(F)F)C(=O)O; AcLys = CC(=O)NCCCC[C@H](N[*:1])C(=O)[*:2]; Bta = N[C@@H](Cc1csc2ccccc12)C(=O)O; αAllylPro = C=CC[C@@]1(C(=O)O)CCCN1; tBuAla = CC(C)(C)C[C@H](N)C(=O)O; 3Thi = N[C@@H](Cc1ccsc1)C(=O)O; S8 = C=CCCCCCC[C@](C)(N)C(=O)O; Nle = CCCC[C@H](N)C(=O)O; Aib = CC(C)(N)C(=O)O

T1: B-cat-Halo (UniProt P35222 1-781, HaloTag NanoBRET 618 Ligand bound in the assay)
T1 sequence (looked up): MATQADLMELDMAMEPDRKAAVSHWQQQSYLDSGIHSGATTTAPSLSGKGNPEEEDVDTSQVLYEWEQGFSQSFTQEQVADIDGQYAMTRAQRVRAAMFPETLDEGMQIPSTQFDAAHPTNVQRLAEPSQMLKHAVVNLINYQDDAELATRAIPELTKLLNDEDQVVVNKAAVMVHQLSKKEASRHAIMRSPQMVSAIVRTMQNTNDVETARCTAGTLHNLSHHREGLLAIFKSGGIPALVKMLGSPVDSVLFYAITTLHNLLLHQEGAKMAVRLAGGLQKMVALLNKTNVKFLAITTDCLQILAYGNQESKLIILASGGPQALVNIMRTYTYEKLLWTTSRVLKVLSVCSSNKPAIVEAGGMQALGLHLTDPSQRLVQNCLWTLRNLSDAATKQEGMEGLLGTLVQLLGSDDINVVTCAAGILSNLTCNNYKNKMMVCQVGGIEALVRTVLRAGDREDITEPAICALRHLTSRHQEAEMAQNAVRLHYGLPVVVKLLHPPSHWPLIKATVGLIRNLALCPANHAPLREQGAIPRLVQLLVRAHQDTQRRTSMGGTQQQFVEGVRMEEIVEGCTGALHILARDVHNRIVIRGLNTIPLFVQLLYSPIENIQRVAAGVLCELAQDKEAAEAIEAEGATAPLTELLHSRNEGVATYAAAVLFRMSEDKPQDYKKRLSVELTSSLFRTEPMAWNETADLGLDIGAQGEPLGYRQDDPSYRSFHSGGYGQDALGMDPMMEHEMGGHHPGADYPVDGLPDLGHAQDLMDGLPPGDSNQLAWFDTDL

T2: full-length beta-Catenin (Uniprot ID P35222) (Homo sapiens (Human), UniProt P35222 1-781)
T2 construct: also called bCat; B-Catenin
T2 sequence: T1 sequence (looked up)

B1: I-2544 (peptide)
peptide: Ac-[αAllylPro]D[tBuAla][B5(4)]D[Phe(3-COOH)]AAF[Me2Gln][PyrS2″][2F3MeF][Bta][MorphGln]-NH2
modifications: staple 1-4, 4-11; not fully specified; printed as Ac-PL3-Asp-Npg-B5-Asp-3COOHF-Ala-Ala-Phe-Me2Gln-PyrS2-2F3MeF-BztA-MorphGln-NH2
B2: I-2545 (peptide)
peptide: Ac-[αAllylPro]D[tBuAla][B5(4)]D[Phe(3-COOH)]AAF[Me2Gln][PyrS2″][Phe(2-CF3)][Bta][MorphGln]-NH2
modifications: staple 1-4, 4-11; not fully specified; printed as Ac-PL3-Asp-Npg-B5-Asp-3COOHF-Ala-Ala-Phe-Me2Gln-PyrS2-2F3MeF-BztA-MorphGln-NH2
B3: I-2546 (peptide)
peptide: Ac-[αAllylPro]D[tBuAla][B5(4)]D[Phe(3-COOH)]AAF[MorphGln][PyrS2″][2F3MeF][Bta][MorphGln]-NH2
modifications: staple 1-4, 4-11; not fully specified; printed as Ac-PL3-Asp-Npg-B5-Asp-3COOHF-Ala-Ala-Phe-MorphGln-PyrS2-2F3MeF-BztA-MorphGln-NH2
B4: I-2547 (peptide)
peptide: Ac-[αAllylPro]D[tBuAla][B5(4)]D[Phe(3-COOH)]AAF[MorphGln][PyrS2″][2F3MeF][Bta][MorphGln]-NH2
modifications: staple 1-4, 4-11; not fully specified; printed as Ac-PL3-Asp-Npg-B5-Asp-3COOHF-Ala-Ala-Phe-MorphGln-PyrS2-2F3MeF-BztA-MorphGln-NH2
B5: I-2548 (peptide)
peptide: Ac-[αAllylPro]D[tBuAla][B5(4)]D[Phe(3-COOH)]AAF[AcLys][PyrS2″][2F3MeF][Bta][MorphGln]-NH2
modifications: staple 1-4, 4-11; not fully specified; printed as Ac-PL3-Asp-Npg-B5-Asp-3COOHF-Ala-Ala-Phe-AcLys-PyrS2-2F3MeF-BztA-MorphGln-NH2
B6: I-2549 (peptide)
peptide: Ac-[αAllylPro]D[tBuAla][B5(4)]D[Phe(3-COOH)]AAF[AcLys][PyrS2″][2F3MeF][Bta][MorphGln]-NH2
modifications: staple 1-4, 4-11; not fully specified; printed as Ac-PL3-Asp-Npg-B5-Asp-3COOHF-Ala-Ala-Phe-AcLys-PyrS2-2F3MeF-BztA-MorphGln-NH2
B7: I-549 (peptide)
peptide: XDIXDDAAFNXFXQ
modifications: not fully specified; N-terminal Ac; PL3 at 1; B5 at 4; S8 at 11; 2OMeF at 12; BztA at 13; C-terminal NH2; staples PL3(1)-B5(4) and B5(4)-S8(11) by olefin metathesis
notes: It has the same description as I-550 and is the earlier eluting HPLC peak (staple isomer composition)
B8: I-553 (peptide)
peptide: XDIXDDAAFNXFXH
modifications: not fully specified; N-terminal Ac; PL3 at 1; B5 at 4; S8 at 11; 2OMeF at 12; BztA at 13; C-terminal NH2; staples PL3(1)-B5(4) and B5(4)-S8(11) by olefin metathesis
notes: It has the same description as I-554 and is the earlier eluting HPLC peak (staple isomer composition)
B9: I-554 (peptide)
peptide: XDIXDDAAFNXFXH
modifications: not fully specified; N-terminal Ac; PL3 at 1; B5 at 4; S8 at 11; 2OMeF at 12; BztA at 13; C-terminal NH2; staples PL3(1)-B5(4) and B5(4)-S8(11) by olefin metathesis
B10: I-558 (peptide)
peptide: XDLXDDAAFQXFXQ
modifications: not fully specified; N-terminal Ac; PL3 at 1; B5 at 4; S8 at 11; BztA at 13; C-terminal NH2; staples PL3(1)-B5(4) and B5(4)-S8(11) by olefin metathesis
B11: I-559 (peptide)
peptide: XDLXDDAAFQXFXQ
modifications: not fully specified; N-terminal Ac; PL3 at 1; B5 at 4; S8 at 11; BztA at 13; C-terminal NH2; staples PL3(1)-B5(4) and B5(4)-S8(11) by olefin metathesis
notes: It has the same description as I-558 and is the later eluting HPLC peak (staple isomer composition)
B12: I-561 (peptide)
peptide: XDLXDDAAFQXFXH
modifications: not fully specified; N-terminal Ac; PL3 at 1; B5 at 4; S8 at 11; BztA at 13; C-terminal NH2; staples PL3(1)-B5(4) and B5(4)-S8(11) by olefin metathesis
notes: It has the same description as I-560 and is the later eluting HPLC peak (staple isomer composition)
B13: I-542 (peptide)
peptide: XDTXDEAAFQXFXQ
modifications: not fully specified; N-terminal Ac; PL3 at 1; TOMe at 3; B5 at 4; S8 at 11; BztA at 13; C-terminal NH2; staples PL3(1)-B5(4) and B5(4)-S8(11) by olefin metathesis

What follows are binders tested against T1, B-cat-Halo (assay: cell-based or functional assay).

NanoBRET Abs IC50 [µM]	Binder
7.3	Ac-[αAllylPro]D[tBuAla][B5(4)]D[Phe(3-COOH)]AAFF[PyrS2″][Phe(2-CF3)][Bta][MorphGln]-NH2 (staple 1-4, 4-11) [I-2543]
4.1	B1
4	B2
3.5	B3
3.5	B4
3.6	B5
2.5	B6
9.8	Ac-[αAllylPro]D[tBuAla][B5(4)]D[Phe(3-COOH)][Aib]AF[Nle][PyrS2″][3Thi][Bta][(NMe2)GlnR(3)]-NH2 (staple 1-4, 4-11) [I-2551]
10.4	Ac-[αAllylPro]D[tBuAla][B5(4)]D[Phe(3-COOH)][Aib]AF[Nle][PyrS2″][3Thi][Bta][(NHEt)GlnR]-NH2 (staple 1-4, 4-11) [I-2552]

What follows are binders tested against T2, full-length beta-Catenin (Uniprot ID …) (assay: fluorescence polarization competition; full-length beta-catenin with 5FAM-labeled TCF4 residues 10-53 probe as competitor).
Procedure: The plate was incubated protected from light for 60 minutes at 20° C. prior to read. Reads were performed on a CLARIOstar plate reader (BMG Labtech) in duplicate, and data were fitted to a 1:1 binding model with hill slope using an in-house script. All provided concentrations are final concentrations.

IC50 [µM]	Binder
0.071	B7
0.061	B8
0.0275	B9
0.056	B10
0.043	B11
0.081	Ac-[αAllylPro]DL[B5(5)]DDAAFQ[S8]F[Bta]H-NH2 (staple 1-4, 4-11) [I-560]
0.034	B12
0.051	Ac-[αAllylPro]DL[B5(5)]DDAAFN[S8]F[Bta]Q-NH2 (staple 1-4, 4-11) [I-562]
5	Ac-[αAllylPro]DA[B5(21)][(NHiPr)AsnR]DAAFV[S8]F[Bta]Q-NH2 (staple 1-4, 4-11) [I-535]
4.47	Ac-[αAllylPro]DA[B5(21)][(NHEt)AsnR]DAAFV[S8]F[Bta]Q-NH2 (staple 1-4, 4-11) [I-536]
5	Ac-[αAllylPro]DA[B5(21)][(NHnPr)AsnR]DAAFV[S8]F[Bta]Q-NH2 (staple 1-4, 4-11) [I-537]
5	Ac-[αAllylPro]DA[B5(21)][(NHCyPr)AsnR]DAAFV[S8]F[Bta]Q-NH2 (staple 1-4, 4-11) [I-538]
5	Ac-[αAllylPro]DA[B5(21)][(NHCyBu)AsnR]DAAFV[S8]F[Bta]Q-NH2 (staple 1-4, 4-11) [I-539]
5	Ac-[αAllylPro]DA[B5(21)][(NHMe)AsnR]DAAFV[S8]F[Bta]Q-NH2 (staple 1-4, 4-11) [I-540]
0.18	Ac-[αAllylPro]D[TOMe][B5(21)]DEAAFQ[S8]F[Bta]Q-NH2 (staple 1-4, 4-11, It has the same description as I-542) [I-541]
0.109	B13
